Reference: the RNAGym collection of RNA variant scans (doi:10.1073/pnas.2313332121)

B1: TPR t1 (parent)
chain: GACCAAUCUGCCCUCAGAGCUCGAGAACAUCUUCGGAUGCAGAGGAGGCAGGCUUCGGUGGCGCGAUAGCGCCAACGUCCUCAACCUCCAAUGCAUCCCACCACAUGAUGAUGCCUGAAGAGCCUUGGUUUUUUG

Variants of: B1
Assay: polymerase ribozyme fitness, log enrichment relative to wild type (log ratio); higher = more active; in vitro selection for triplet polymerase activity
Method in brief: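 In triplicate, a single round of in vitro selection was run on each mutant library, PCR-built and transcribed, covering one subunit of a heterodimeric triplet polymerase ribozyme. Frozen incubation at −7 °C followed annealing with a biotinylated primer, partner subunit and triplets, and extended constructs were then gel-excised, streptavidin-captured and taken through RT-PCR. Fitness is the logarithm of genotype enrichment over wild-type enrichment, from inverse-variance-weighted replicate averages of Illumina-sequenced inputs and outputs. […] only genotypes with ≥10 input reads and ≥1 read per output were kept.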

Variant | polymerase ribozyme fitness (log ratio)
G39U U78G A83C A91G U129A | -3.94
G39U G52C A95U C115A A118G | -3.5
C40A U112A | -0.958
C40A A50U | -1.94
C40G C72G | -1.56
C40G A100U C101A | -3.4
C40A G45U G63A | -2.99
G39C C97U G120C | 0.357
C40G A50U G61A C79U C85G G117U A121U U134A | -2.53
C40A C70A G93U | -1.59
C40A A41G C70U | -1.7
C40G G71U A105U | -3.41
G39U C101A | -2.22
C40G U81A | -2.17
C40A C94G G120A U129A | -3.13
C40G C102A A118U | -2.92
G39U A43C C49A | -3.34
C40G C49G G51A C76U | -4.64
C40A A43U G44C G110U C114U | -5.04
C40G G47U G71U | -6.34
C40A G45A C56U G110C | -6.54
C40A G48A G61A U92A C94U A105G | -7.09
C40G G71A U78G | -2.94
G39C C53G G107C A121U | -4.92

Variant | polymerase ribozyme fitness (log ratio)
G39U G63U A121U G135A | 0.925
C40A A108G A119G G122U | -2.47
G39U G69U | 0.0399
G39U G45U G48A C73A C79G G113A | -5.88
G39C A118C | -2.89
G39A G113U | -2.43
G39U U78C A121U | 1.16
C40A C94G C97U G113U | -7.66
G39U C40A C62U | -2.99
G39U A119G | 0.375
C40A G44C C49G U54A G71A C99U U109A C115U U130G | -6.71
C40G C62U G93C G128U | -1.46
G39U U96A C115A U126G | -6.69
C40G C72G C115G C123G G128C | -4.8
G39C G71A | -1.21
C40A C88U | -0.447
C40A C70U G113A | -2.79
G39U G42C | -2.2
G39C C53G C124U G128U | -0.975
C40G C114U C123U | -4.09
G39C U112A | 0.828
C40A C64U C85A C102A U112G C123U | -5.99
C40G G44C A74U | -1.5
C40G C56A G57U C70A C72U G77A | -4.22

Variant | polymerase ribozyme fitness (log ratio)
C40A A66C G77A | -3.74
G39C A43G G48U U54G G93C G113A | -5.27
C40A G71U C115G C123G | -5.05
G39A U132A | -0.367
C40A U87A C88U G135C | -2.71
C40A G63U C104U C115G | -3.72
G39A G71U A83U | -1.37
C40G C62A C124A | -0.241
C40A G45U G63A G69C C82A C86G C101U C114G | -6.64
G39C U59A C104A | -2.48
G39U G58A A105C | -5.05
C40G C85A | -2.32
C40G C64U C85A U112C | -0.298
G39C G120A | 0.0157
C40G C79U | -1.27
C40G C79A | -2.58
C40G C72U U78C | -1.15
G39C C115U C124A | -0.672
G39C G63A C76A G117C | -6.26
G39U C89U A118U | -0.539
C40G U54A G61C A100U | -4.7
C40G G51U U87A A90G G117U | -5.66
C40G G52A | -0.59
C40A U81C | -1.68

Variant | polymerase ribozyme fitness (log ratio)
C40A G57A | -3.1
G39U U55G A74C A75C C104U G113C | -3.51
C40G A46U | -2.96
G39U U54G C56A A83C C89U | -3.7
G39C C76U U126G | -2.72
G39U A46G | -1.02
G39U G48A G61C | -2.96
C40G C86G | -2.86
C40G G48U G69U | -1.67
C40A G52A C72U A91G | -4.17
C40A U92C A118G | -2.05
C40G G57A G61U G113A A121G G122A | -2.96
G39A U116A U129C | -3.92
C40A G69C U106A C124A | -1.51
G39C C62U G63A | -3.77
C40A G52A G58A C62U A119U U126A | -4
C40A C70U | -0.716
C40A G60A G93A A121U | 1
G39C G57A | -1.33
C40G G45A U78C G113U G135A | -4.25
G39U C64U A84C | -0.386
C40G G63U | -1.85
C40G G63A | -1.91
G39C G48U A111U | -4.49

Variant | polymerase ribozyme fitness (log ratio)
G39C A111C G113A | -3.44
G39U G52U G61U C102U | -4.31
G39U C53U G61U C123A G135U | -0.952
C40G G47U C64U G93U U129C U133G | -3.04
C40A A41C C115A | -2.44
C40G A100U U133G | -4.07
C40A C80A G93U C101A | -3.95
C40G A43U | -2.95
G39U A41G G44U C56G A105C A111U | -5.8
G39U G71C U116G | -3.1
G39U G44A | -1.38
C40G G61A G120A | 0.253
G39U G58A | 0.844
C40G A46G C64U | -1.62
G39U U106A G127A | -2.14
C40G A84U | -1.56
G39U G60U U129G | -2.5
C40G C56A C86U | -1.71
G39U C76G | -0.793
G39U C76U | -0.958
G39U G44C U59A | -2.12
C40G C53U C94G G107U C124U U125G | -7.6
C40G G47U C49A | -3.74
G39U C56G | -1.37

Variant | polymerase ribozyme fitness (log ratio)
G39U C56U | 0.0586
G39U C56A | -1.06
C40G C62U | -1.8
C40A G52A C101A | -3.1
C40A A91G C99U A111U G122A | -6.79
C40G A41C | -3.16
G39U C53G | 0.711
G39U C53U | -0.876
C40A G48A U55A G60U A95G G120C | -1.07
C40A G61U U109G | -6.14
G39U G117A | -2.1
C40G C56A C79G C101U G110A | -6.02
C40G G42A U59A A95G C123G | -2.1
C40A G42U C56A | -2.35
C40A G48A G117C | -5.6
G39C U112A A121U | 1.84
C40A C56A C97U | -1.12
G39C G48U A75U | -1.28
G39U G60C C62U C97U | -3.98
G39C C89A C99U U106A A111G | -6
G39C | -0.776
G39U | -0.799
C40A G61A C80U | -2.91
C40A G120U | -0.939

Variant | polymerase ribozyme fitness (log ratio)
C40A G120A | -0.957
G39U U112C G127A | -0.476
G39C C40U G69A | -4.36
C40G C56G G122A | -1.45
C40A G51A U78C C124A | -3.18
C40A C79G | -3.35
C40G A43U C73A U126C | -3.57
C40A G60A U81A | -2.66
G39C G48A G71U | -1.51
G39C G45C C64U C82A C85G | -5.8
G39U G45U C62U U112C | -0.882
G39A U78A A108G A111C | -1.88
C40G A43U U54G | -2.72
C40G C114U | -2.54
C40A G63A A84U | -2.88
C40A G48A | -2.24
G39C A90G | 0.876
C40G G48U U92A | -4.05
G39U C102A | -3.45
C40G U87G | -1.6
G39U G47A C86U C101A G113U | -4.62
C40G A75U G127A | -2.31
G39U C115U | -1.86
